Where a chain is given by its changes, count along the chain named. Names and notes keep the numbering of the source.
B1: HA-tagged activated human AUR2 mutant T288D (protein)
chain: MDRSKENCISGPVKATAPVGGPKRVLVTQQFPCQNPLPVNSGQAQRVLCPSNSSQRVPLQAQKLVSSHKPVQNQKQKQLQATSVPHPVSRPLNNTQKSKQPLPSAPENNPEEELASKQKNEESKKRQWALEDFEIGRPLGKGKFGNVYLAREKQSKFILALKVLFKAQLEKAGVEHQLRREVEIQSHLRHPNILRLYGYFHDATRVYLILEYAPLGTVYRELQKLSKFDEQRTATYITELANALSYCHSKRVIHRDIKPENLLLGSAGELKIADFGWSVHAPSSRRTDLCGTLDYLPPEMIEGRMHDEKVDLWSLGVLCYEFLVGKPPFEANTYQETYKRISRVEFTFPDFVTEGARDLISRLLKHNPSQRPMLREVLEHPWITANSSKPSNCQNKESASKQSYPYDVPDYAS
B2: HA-tagged wild-type human AUR2 (entire coding domain with C-terminal HA epitope) (protein)
chain: B1 chain with D288T
B3: HA-tagged kinase inactive human AUR2 mutant K162M (protein)
chain: B1 chain with K162M, D288T
B4: human AUR2 (AURORA TWO), endogenous protein in lysates of human tumors and tumor cell lines (protein)
chain: MDRSKENCISGPVKATAPVGGPKRVLVTQQFPCQNPLPVNSGQAQRVLCPSNSSQRVPLQAQKLVSSHKPVQNQKQKQLQATSVPHPVSRPLNNTQKSKQPLPSAPENNPEEELASKQKNEESKKRQWALEDFEIGRPLGKGKFGNVYLAREKQSKFILALKVLFKAQLEKAGVEHQLRREVEIQSHLRHPNILRLYGYFHDATRVYLILEYAPLGTVYRELQKLSKFDEQRTATYITELANALSYCHSKRVIHRDIKPENLLLGSAGELKIADFGWSVHAPSSRRTTLCGTLDYLPPEMIEGRMHDEKVDLWSLGVLCYEFLVGKPPFEANTYQETYKRISRVEFTFPDFVTEGARDLISRLLKHNPSQRPMLREVLEHPWITANSSKPSNCQNKESASKQS
B5: human AUR1 (AURORA ONE), endogenous protein in SW480 cell lysate (protein)
chain: MAQKENSYPWPYGRQTAPSGLSTLPQRVLRKEPVTPSALVLMSRSNVQPTAAPGQKVMENSSGTPDILTRHFTIDDFEIGRPLGKGKFGNVYLAREKKSHFIVALKVLFKSQIEKEGVEHQLRREIEIQAHLHHPNILRLYNYFYDRRRIYLILEYAPRGELYKELQKSCTFDEQRTATIMEELADALMYCHGKKVIHRDIKPENLLLGLKGELKIADFGWSVHAPSLRRKTMCGTLDYLPPEMIEGRMHNEKVDLWCIGVLCYELLVGNPPFESASHNETYRRIVKVDLKFPASVPTGAQDLISKLLRHNPSERLPLAQVSAHPWVRANSRRVLPPSALQSVA

What follows are molecules tested against alpha-casein (assay: not given). Conditions: not given.

Row | Molecule | in vitro kinase assay on protein from stable Rat1 lines
1 | B1 | the wild-type and activated AUR2 (T288D) proteins had increased activity on this artificial substrate
2 | B2 | the wild-type and activated AUR2 (T288D) proteins had increased activity on this artificial substrate
3 | B3 | The kinase inactive AUR2 mutant (K162M) was unable to phosphorylate-casein over the levels observed in the vector control cell line in vitro

The molecules below were run against myelin basic protein (Sigma) (assay: not given). Conditions: not given.

Row | Molecule | in vitro kinase assay, phosphorylation of myelin basic protein | in vitro kinase assay on protein from stable NIH3T3 lines
4 | B4 | AUR1 and AUR2 immunocomplexes were able to phosphorylate myelin basic protein | 
5 | B1 |  | the activated AUR2 mutant (T288D) had marked activity on this artificial substrate
6 | B2 |  | The wild-type and kinase inactive AUR2 mutant (K162M) were unable to phosphorylate myelin basic protein in vitro
7 | B3 |  | The wild-type and kinase inactive AUR2 mutant (K162M) were unable to phosphorylate myelin basic protein in vitro
8 | B5 | AUR1 and AUR2 immunocomplexes were able to phosphorylate myelin basic protein | 

Each molecule was assayed on AUR2 (assay: AUR2 protein expression by immunoblot after antisense oligo treatment of H1299 cells). Conditions: human tumor cell line H1299, lipofectin, each oligo 1 μM then 200 nM, harvested ~40 hours after initial treatment.
Assay type: cell-based
Experimental: Human H1299 cells were seeded at ˜40–50% confluency in a 6 well plate (Falcon). The following day lipofectin (Gibco) and oligo(s) were mixed with OptiMEM (Gibco) such that the final concentration of lipofectin is 100 μg/mL and the final concentration of each oligo is 1 μM in a volume of 200 μL. The lipofectin/oligo/OptiMEM mixture was incubated at room temperature (20–25° C.) for 15 minutes, 800 μL of OptiMEM was added to the lipofectin/oligo/OptiMEM mixture, and mixed gently. The growth medium was removed from the H1299 cells, which were at ˜80% confluency. Cells were washed once with OptiMEM. The OptiMEM was aspirated, the lipofectin/oligo/OptiMEM mixture was added, cultures incubated at 37° C. for 4 hours. The lipofectin/oligo/OptiMEM mixture was removed and replaced with normal growth medium containing the antisense oligo(s) at a concentration of 200 nM. The plates were returned to the 37° C. incubator for 16–20 hours after which the growth medium was removed from the cells and they were washed once with OptiMEM. The OptiMEM was again aspirated and the lipofectin/oligo/OptiMEM mixture was added (prepared as described above) and the plates again were incubated at 37° C. for 4 hours. The lipofectin/oligo/OptiMEM mixture was removed again and replaced with normal growth medium containing the antisense oligo(s) at a concentration of 200 nM. The platea were returned to the 37° C. incubator for 16–20 hours. The cells were harvested (˜40 hours after initial treatment) and analyzed for aur2 mRNA by northern blot or AUR2 protein expression by immunoblot.

Row | Molecule | AUR2 protein expression
9 | TGCAGTCGAACCTTGCCTCCA (listed as DNA, chemistry not given here) [SEQ ID NO:32, antisense oligonucleotide to nucleotides 1654–1674 of aur2] | significantly down regulated
10 | SEQ ID NO:16: printed in b341 as antisense oligonucleotide targeting human aur2 mRNA; probably misprint for one of SEQ ID NO:30-32 (antisense GARTTYGGNGARGTNTTYYTNGC; listed as DNA, chemistry not fully specified) | significantly down regulate
11 | CAGGGCAGAGTGGTCACTTTC (listed as DNA, chemistry not given here) [SEQ ID NO:30, antisense oligonucleotide to nucleotides 1743–1763 of aur2] | significantly down regulated
12 | SEQ ID NO:17: printed in b341 as antisense oligonucleotide targeting human aur2 mRNA; probably misprint for one of SEQ ID NO:30-32 (antisense AGNACNCCRAANGCCCACACRTC; listed as DNA, chemistry not fully specified) | significantly down regulate
13 | CGTCCGCCACTCCGACCAGCC (listed as DNA, chemistry not given here) [SEQ ID NO:31, antisense oligonucleotide to nucleotides 42–62 of aur2] | significantly down regulated
